Consider 3 molecules from publication PMC3750045, “Human RNase H1 Is Associated with Protein P32 and Is Involved in Mitochondrial Pre-rRNA Processing” (PLoS ONE, 2013).

First the molecules themselves.
B1: N-terminal His-tagged human RNase H1 (recombinant) (enzyme, UniProt O60930 1-286, looked up)
chain: MSWLLFLAHRVALAALPCRRGSRGFGMFYAVRRGRKTGVFLTWNECRAQVDRFPAARFKKFATEDEAWAFVRKSASPEVSEGHENQHGQESEAKASKRLREPLDGDGHESAEPYAKHMKPSVEPAPPVSRDTFSYMGDFVVVYTDGCCSSNGRRRPRAGIGVYWGPGHPLNVGIRLPGRQTNQRAEIHAACKAIEQAKTQNINKLVLYTDSMFTINGITNWVQGWKKNGWKTSAGKEVINKEDFVALERLTQGMDIQWMHVPGHSGFIGNEEADRLAREGAKQSED
notes: human RNase H1, 286 residues (domains printed as aa1-72, aa73-135, aa136-286), in the pET 3C vector; also called His-H1; His-tag RNase H1; source: E. coli BL21 (DE3), lysed in 6 M guanidine, purified (Ni-NTA agarose)
B2: GST-P32 fusion protein (natural protein, human, UniProt Q07021 74-282, looked up)
chain: LHTDGDKAFVDFLSDEIKEERKIQKHKTLPKMSGGWELELNGTEAKLVRKVAGEKITVTFNINNSIPPTFDGEEEPSQGQKVEEQEPELTSTPNFVVEVIKNDDGKKALVLDCHYPEDEVGQEDEAESDIFSIREVSFQSTGESEWKDTNYTLNTDSLDWALYDHLMDFLADRGVDNTFADELVELSTALEHQEYITFLEDLKSFVKSQ

The series “GST-P32 fusion protein” addresses B2. The experiment in a line: pull-down; fixed amount of GST-P32 on GST beads, increasing amounts of RNase H1 (0.025–2.0 µg/400 µl), room temperature 15–20 minutes; glutathione elution; bound RNase H1 and P32 quantified by Western blot against known amounts. To be noted: both partners purified. On the technique in general: Immunoblotting shows a protein as a band on a membrane.

Series [1] has as its target B1. The experiment in a line: cell-based or functional assay.
In a further series the target is T1, His-RNase H1 (Homo sapiens, UniProt O60930 1-286).
T1 sequence: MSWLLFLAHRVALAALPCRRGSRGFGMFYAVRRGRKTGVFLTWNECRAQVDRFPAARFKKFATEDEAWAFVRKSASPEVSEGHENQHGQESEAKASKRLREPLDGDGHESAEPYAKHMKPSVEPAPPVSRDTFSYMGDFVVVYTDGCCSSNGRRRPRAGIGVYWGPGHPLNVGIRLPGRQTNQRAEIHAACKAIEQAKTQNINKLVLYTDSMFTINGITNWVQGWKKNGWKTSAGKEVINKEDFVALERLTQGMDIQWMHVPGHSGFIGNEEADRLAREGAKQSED
As to the kind of experiment: EMSA; 2 mM Mg2+, 4 C; EMSA: 20 mM Tris pH 7.0, 20 mM NaCl, 2 mM MgCl2, 5% glycerol, 30 min at 4 C; cleavage buffer (described for IP activity assays; competition conditions by reference): 20 mM Tris pH 7.5, 50 mM NaCl, 2 mM MgCl2, 5 mM 2-mercaptoethanol, 37 C. The settings on record: protein: recombinant; tags: N-terminal His; label: 32P (5' end).

In the case of B1, the “stoichiometry N” value with GST-P32 fusion protein is ~1.43 molecules of RNase H1 to 1 molecule of P32.

In the case of B2, in series [1], the “increase in Km of RNase H1 for the RNA/DNA duplex with GST-P32 at H1:P32 ratios of 1:1 and 1:5, against RNase H1 with GST control” value was about 5 fold; the “increase in kcat of RNase H1 cleavage of the RNA/DNA duplex with GST-P32, against control RNase H1” value was about 2 fold.

B3: Duplex B, non-cleavable Apo B 2'-fluoro RNA/DNA heteroduplex (XNA)
RNA: GGAUGGUAGCACAAGUGACA
DNA: TGTCCTTGTGCTACCATCC
modifications: strand 1 uniformly 2'-fluoro RNA; strand 2 DNA
In the case of B3, the binding result in the series with His-RNase H1 is “binds”.
